Source: PMC4746701, “Crystal structure of SEL1L: Insight into the roles of SLR motifs in ERAD pathway” (Scientific Reports, 2016)
Positions count from the first letter of the chain named. Names and notes keep the numbering of the source.

Experiments:
[1] = biological target: T1, MBP-SEL1L SLR-C (SLR motifs 10 and 11, residues 639–719) (Mus musculus, UniProt Q9Z2G6 639-719); experiment: pull-down; 400 μg GST-HRD1 luminal fragment on glutathione sepharose 4B beads, 100 μg MBP-SEL1L protein; 150 mM NaCl, 25 mM sodium phosphate pH 7.5, 5 mM DTT; 4 °C, 15 minutes; SDS-PAGE, Coomassie; conditions: both partners purified
T1 construct: SEL1L, Mus musculus, residues 639-719 (SLR-C); source: purified; not shown: MBP, N-terminal, kept

[2] = biological target: the molecule itself; experiment: cross-linking; glutaraldehyde (0.005%) or dimethyl suberimidate (0.3 mM), products analysed by SDS-PAGE
[3] = biological target: the molecule itself; experiment: SEC; Superdex 200; 25 mM Tris, 150 mM NaCl, 5 mM DTT, pH 7.5

T1 sequence (Q9Z2G6 639-719): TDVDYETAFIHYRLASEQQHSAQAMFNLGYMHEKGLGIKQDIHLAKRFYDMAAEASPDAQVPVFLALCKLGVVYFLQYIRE

B1: GST-HRD1 N-terminal luminal loop (residues 21–42) (domain or fragment, mouse, UniProt Q9DBY1 21-42, looked up)
chain: HAYYLKHQFYPTVVYLTKSSPS
notes: HRD1 E3 ubiquitin ligase, mouse, N-terminal luminal loop, residues 21-42; also called N-terminal luminal loop of HRD1; HRD1 luminal fragment GST-fusion protein; source: GST-fusion protein immobilised on glutathione sepharose 4B beads
Q: Does B1 bind [1]?
A: binds

B2: SEL1L^long (mouse SEL1L residues 337–554) (domain or fragment, Mus musculus, UniProt Q9Z2G6 337-554, looked up)
chain: RLPDEVENPGMNSGMLEEDLIQYYQFLAEKGDVQAQVGLGQLHLHGGRGVEQNHQRAFDYFNLAANAGNSHAMAFLGKMYSEGSDIVPQSNETALHYFKKAADMGNPVGQSGLGMAYLYGRGVQVNYDLALKYFQKAAEQGWVDGQLQLGSMYYNGIGVKRDYKQALKYFNLASQGGHILAFYNLAQMHASGTGVMRSCHTAVELFKNVCERGRWSER
notes: SEL1L, Mus musculus (790 amino acids), residues 337-554; also called the central region of SEL1L, residues 337–554; source: purified
Q: For B2, which “stoichiometry N” value [2] is on record?
A: 2

B3: SEL1L^cent (mouse SEL1L central domain, SLR motifs 5 to 9, residues 348–533) (domain or fragment, Mus musculus, UniProt Q9Z2G6 348-533, looked up)
chain: NSGMLEEDLIQYYQFLAEKGDVQAQVGLGQLHLHGGRGVEQNHQRAFDYFNLAANAGNSHAMAFLGKMYSEGSDIVPQSNETALHYFKKAADMGNPVGQSGLGMAYLYGRGVQVNYDLALKYFQKAAEQGWVDGQLQLGSMYYNGIGVKRDYKQALKYFNLASQGGHILAFYNLAQMHASGTGVMR
notes: Forms a homodimer (crystal, cross-linking, AUC, SEC); also called wild-type SEL1L^cent; source: purified
Q: For B3, which “stoichiometry N” value [2] is on record?
A: 2

B4: SEL1L^cent Q460A (negative control point mutant) (domain or fragment, Mus musculus, UniProt Q9Z2G6 348-533, looked up)
chain: B3 chain with Q113A
notes: source: purified
Q: Does B4 bind [3]?
A: binds

B5: SEL1L^cent G513A (domain or fragment, Mus musculus, UniProt Q9Z2G6 348-533, looked up)
chain: B3 chain with G166A
notes: source: purified
Q: Does B5 bind [3]?
A: binds

B6: SEL1L^cent G512A (domain or fragment, Mus musculus, UniProt Q9Z2G6 348-533, looked up)
chain: B3 chain with G165A
notes: source: purified
Q: Does B6 bind [3]?
A: binds
